Reference: patent EP4053153A1

Legend:
[1] = target: human transferrin receptor (human) (UniProt P02786); experiment: MST (Monolith NT.115); His-tag-dye-labelled protein, TfR titrated
[2] = target: mouse transferrin receptor (mouse) (UniProt Q62351); experiment: as above
Sequence of mouse transferrin receptor (mouse) (Q62351 89-763 limits assumed): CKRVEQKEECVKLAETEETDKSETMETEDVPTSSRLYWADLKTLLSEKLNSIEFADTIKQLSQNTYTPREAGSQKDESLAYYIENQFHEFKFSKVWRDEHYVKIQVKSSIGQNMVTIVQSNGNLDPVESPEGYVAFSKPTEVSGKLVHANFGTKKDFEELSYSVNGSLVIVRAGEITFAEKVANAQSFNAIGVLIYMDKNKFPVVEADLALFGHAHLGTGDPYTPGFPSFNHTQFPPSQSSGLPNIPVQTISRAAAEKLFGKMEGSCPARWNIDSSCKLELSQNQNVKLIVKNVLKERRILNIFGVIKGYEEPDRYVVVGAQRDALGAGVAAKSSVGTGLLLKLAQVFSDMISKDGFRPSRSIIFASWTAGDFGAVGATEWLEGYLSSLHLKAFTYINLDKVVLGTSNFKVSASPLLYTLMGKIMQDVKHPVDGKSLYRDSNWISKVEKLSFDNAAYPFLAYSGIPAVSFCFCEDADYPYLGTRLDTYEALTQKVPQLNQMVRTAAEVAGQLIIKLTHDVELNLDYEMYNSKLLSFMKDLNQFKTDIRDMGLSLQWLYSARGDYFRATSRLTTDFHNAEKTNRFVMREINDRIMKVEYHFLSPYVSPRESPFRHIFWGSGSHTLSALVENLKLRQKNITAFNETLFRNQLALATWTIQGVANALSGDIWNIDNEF

Sequence of human transferrin receptor (human) (P02786 89-760 limits assumed): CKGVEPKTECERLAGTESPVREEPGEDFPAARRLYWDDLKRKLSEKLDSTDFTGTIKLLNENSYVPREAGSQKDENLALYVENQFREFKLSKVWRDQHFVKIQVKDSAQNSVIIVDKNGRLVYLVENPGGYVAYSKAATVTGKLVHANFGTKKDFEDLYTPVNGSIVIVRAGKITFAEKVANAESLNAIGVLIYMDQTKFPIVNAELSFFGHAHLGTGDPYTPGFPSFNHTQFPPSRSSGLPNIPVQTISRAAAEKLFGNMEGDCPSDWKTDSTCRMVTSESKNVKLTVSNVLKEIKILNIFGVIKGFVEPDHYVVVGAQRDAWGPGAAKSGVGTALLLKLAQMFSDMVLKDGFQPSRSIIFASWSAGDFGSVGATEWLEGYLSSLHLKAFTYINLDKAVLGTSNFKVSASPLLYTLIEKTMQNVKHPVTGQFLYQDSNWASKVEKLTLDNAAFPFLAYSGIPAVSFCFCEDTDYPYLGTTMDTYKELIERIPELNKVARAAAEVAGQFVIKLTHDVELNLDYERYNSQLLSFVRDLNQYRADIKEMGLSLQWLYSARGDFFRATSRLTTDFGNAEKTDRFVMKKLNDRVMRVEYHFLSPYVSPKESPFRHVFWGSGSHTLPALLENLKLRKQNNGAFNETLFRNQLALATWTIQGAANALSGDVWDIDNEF

Substance	Kd [1] [nM]	Kd [2] [nM]
N-gp100-huHF (from UniProt P02794 1-183)	18.5	48.3
N-AH1-huHF (from UniProt P02794 1-183)	84.6	
DE-gp100-huHF (from UniProt P02794 1-183)	9.78	30.5
